Test results: patent US20230272113A1
Numbering of substitutions follows the chain as printed.

B1: FL-16 (scFv)
scFv: QVTLKESGPVLVKPTETLTLTCTVSGFSLRNARMAVSWIRQPPGKTLEWLAHIFSNDEKSYSTSLKSRLTISKDTSKSQVVLTMTNMDPVDTATYYCARIVGYGSGWYGYFDYWGQGTLVTVSSGGGGSGGGGSGGGGSDIQMTQSPSSVSASVGDRVTITCRASQDIRYDLAWYQQKPGKAPKRLIYAASSLQSGVPSRFSGSGSGTEFTLTISSLQPEDFATYYCLQHNFYPLTFGGGTKVEIK
B2: FL-7 (scFv)
scFv: QVTLKESGPTLVKPTETLTLTCTVSGFSLNNARMGVSWIRQPPGKALEWLAHIFSNDEKSYSTSLKNRLTISKDSSKTQVVLTMTNVDPVDTATYYCARIVGYGTGWFGYFDYWGQGTQVTVSSGGGGSGGGGSGGGGSDIQMTQSPSSLSASVGDRVTITCRASQDIRTDLAWYQQKPGKAPKRLIYAASSLQSGVPSRFSGSGSGTEFTLTISSLQPEDFATYYCLQHNRYPLTFGGGTKVDIK
B3: FL-3 (scFv)
scFv: QVTLKESGPALVKPTETLTLTCTVSGFSLSNARMAVSWIRQPPGKALEWLAHIFSNGEKSYSTSLKSRLTISKDTSKTQVVLTMTNTDPVDTATYFCARIVGYSDWLLPFDHWGQGIMVTVSSGGGGSGGGGSGGGGSDIQMTQSPSSLSASVGDRVTITCRASQNINRFLNWYQQKPGKAPKLLIYAASSLQSGVPSRFSGSGSGTDFTLTISSLQPEDFATYYCLQHNSYPWTFGQGTKVDIK
B4: FL-1 (scFv)
scFv: QVTLKESGPVLVKPTETLTLTCTVSGFSLINARMGVSWIRQPPGKALEWLAHIFSNAEKSYRTSLKSRLTISKDTSKSQVVLTMTNMDPVDTATYYCARIPGYGGNGDYHYYGMDVWGQGTTVTVSSGGGGSGGGGSGGGGSDIQMTQSPSSLSASLGDRVTITCRASQGIRNDLGWYQQKPGKAPKRLIYASSTLQSGVPSRFSGSGSGTEFTLTISSLQPEDFATYYCLQHNNFPWTFGQGTKVEIK
B5: FL-62 (scFv)
scFv: QVQLVESGGGVVQPGRSLRLSCAASGFTFSSYGMHWVRQAPGKGLEWVAVISYDGSNEFYADSVKGRFTISRDNSKNTLYLQMNSLRAEDTAVYYCARGGEITMVRGVIGYYYYGMDVWGQGTTVTVSSGGGGSGGGGSGGGGSEIVMTQSPATLSVSPGERATLSCRASQGVRNNLVWYQQKPGQAPRLLIYGASTRATGIPARFSGSGSGTEFTLTISSLQSEDFATYYCLQHNSYPLTFGGGTKVEIK
B6: FL-5 (scFv)
scFv: QVTLKESGPMLVKPTETLTLTCTFSGFSLRNARMGVSWIRQPPGKALEWLAHIFWNDEKSYSTSLKSRLTISKDTSKSQVVLTMTNMDPVDTATYYCARIPYYGSGSYNYGMDVWGQGTTVTVSSGGGGSGGGGSGGGGSDIQMTQSPSSLSASVGDRVTITCRASQGIRNDLGWYQQKPGKAPKRLIYAASSLQSGVPSRFSGSGSGTEFTLTISSLQPEDFATYYCLQHNTYPLTFGGGTKVDIK
B7: FL-8 (scFv)
scFv: QVTLKESGPALVKPTETLTLTCTVSGFSLSYARMGVSWIRQPPGKALEWLAQIFSNDEKSYSTSLKSRLTISKGTSNSQVVLTMTNMDPEDTATYYCARIVGYGTGWYGFFDYWGQGILVTVSSGGGGSGGGGSGGGGSDIQMTQSPSSLSASVGDRVTITCRASQGIRNDLGWYQQKPGKAPKRLIYAASSLQSGVPSRFSGSGSGTEFTLTISSLQPEDFATYYCLQHNSYPLTFGGGTKVDIK
B8: FL-12 (scFv)
scFv: B7 scFv with Y31N, Q52N, N77K, T105S, F110Y, I118T, K184Q, D244E
B9: FL-60 (scFv)
scFv: QVTLKESGPALVKPTQTLTLTCTFSGFSLSNARMGVSWIRQPPGKALEWLAHIFSNDEKSYSTSLKSRLTISKDTSKRQVVLTMTNMDPVDTATYYCARMVGYGSGWYAYFDYWGQGTLVTVSSGGGGSGGGGSGGGGSDIVMTQTPLSLSVTPGQPASISCRSSQSLLHSNGYNYLYWYLQKPGQPPQLLIYEVSNRFSGVPDRFSGSGSGTDFTLKISRVEAEDVGVYYCMQALQTPLTFGGGTKVEIK
B10: FL-4 (scFv)
scFv: QVTLKESGPALVKPTETLTLTCTLSGFSLNNAKMGVSWIRQPPGKALEWLAHIFSNDEKSYSTSLKSRLTISKDTSKGQVVLTMTNMDPVDTATYYCARIVGYGSGWYGYFDYWGQGTLVTVSSGGGGSGGGGSGGGGSDIQMTQSPSSLSASVGDRVTITCRASQDIRDDLGWYQQKPGNAPKRLIYGASTLQSGVPSRFSGSGSGTEFTLTISSLQPEDFATYYCLQHNSYPLTFGGGTKVDIK
B11: FL-11 (scFv)
scFv: B10 scFv with A10V, H52Q, D57G, A98S, D167G, D170N, N181K, D244E
B12: FL-14 (scFv)
scFv: B10 scFv with K33R, G35A, A46T, D170N, N181K, G189A, D244E
B13: FL-15 (scFv)
scFv: B10 scFv with K33R, G35A, A46T, R169G, D170N, N181K, G189A, T192S, D244E
B14: FL-13 (scFv)
scFv: QVTLKESGPTLVKPTETLTLTCTLSGFSLNNARMGVSWIRQPPGKALEWLAHIFSNDEKSYSTSLKNRLTISKDSSKTQVVLTMTNVDPVDTATYYCARIVGYGSGWYGFFDYWGQGTLVTVSSGGGGSGGGGSGGGGSDIQMTQSPSSLSASVGDRVTITCRASQGIRNDLGWYQQKPGKAPKRLIYAASTLQSGVPSRFSGSGSGTEFTLTISSLQPEDFATYYCLQHNSYPLTFGGGTKVEIK
B15: FL-17 (scFv)
scFv: QVTLKESGPTLVKPTETLTLTCTVSGFSLSNARMGVSWIRQPPGKALEWLANIFSNDEKSYSTSLKSRLTISKGTSKSQVVLTMTNVNPVDTGTYYCARIVGYGSGWYGYFDYWGQGTLVTVSSGGGGSGGGGSGGGGSDIQMTQSPSSLSASVGDRVTITCRASQDIRNDLGWYQQKPGKAPKRLIYATSIRQSGVPSRFTGSGSGTEFTLTISGLQPEDFATYFCLQHNSFPLTFGGGTKVEIK
B16: FL-6 (scFv)
scFv: QVTLKESGPTLVKPTETLTLTCTLSGFSLNNARMAVSWIRQPPGKTLEWLAHIFSNDEKSYSPSLKSRLTISKDTSKSQVVLTMTNMDPEDTATYYCARIVGYGTGWYGFFDYWGQGILVTVSSGGGGSGGGGSGGGGSDIQMTQSPSSLSASVGDRVTITCRASQGIRNDLGWFQQKPGKAPKRLIYAASVLQSGVPSRFSGSGSGTEFTLTISSLQPEDFATYYCLQHNSYPLTFGGGTKVDIK
B17: FL-10 (scFv)
scFv: QVTLKESGPVLVKPTETLTLTCTVSGFSFRNARMGVSWIRQPPGKALEWLAHIFSNDEKSYSTSLKSRLTISKDTSKSQVVLTLTNMDPVDTATYFCARMPEYSSGWSGAFDIWGQGTMVTVSSGGGGSGGGGSGGGGSDIQMTQSPSSLSASVGDRVTITCRASQDIRDDLGWYQQKPGNAPKRLIYGASTLQSGVPSRFSGSGSGTEFTLTISSLQPEDFATYYCLQHNSYPLTFGGGTKVDIK
B18: FL-61 (scFv)
scFv: QVQLVESGGGVVQPGRSLRLSCAASGFTFSSYGMHWVRQAPGKGLEWVAVISYDGSNEFYADSVKGRFTISRDNSKNTLYLQMNSLRAEDTAVYYCARGGEITMVRGVIGYYYYGMDVWGQGTTVTVSSGGGGSGGGGSGGGGSDIQMTQSPSSLSASVGDRVTITCRASQSISSYLNWYQQKPGKAPKLLIYAASSLQSGVPSRFSGSGSGTEFTLTISSLQPEDFATYYCLQHNSYPLTFGGGTKVEIK
B19: FL-63 (scFv)
scFv: B18 scFv with A169T, E249D
B20: FL-64 (scFv)
scFv: B18 scFv with D161N, E249D
B21: FL-2 (scFv)
scFv: QVTLKESGPVLVKPTETLTLTCTVSGFSLRNARMGVSWIRQPPGKALEWLAHIFSNDEKTYSTSLKSRLTISRDTSKGQVVLTMTKMDPVDTATYYCARIPYYGSGSHNYGMDVWGQGTTVTVSSGGGGSGGGGSGGGGSDIQMTQSPSSLSASVGDRVTITCRASQDIRNDFGWYQQKPGKAPQRLLYAASTLQSGVPSRFSGSGSGTEFTLTISSLQPEDFATYYCLQYNTYPWTFGQGTKVEIK
B22: FL-9 (scFv)
scFv: QVTLKESGPTLVKPTETLTLTCTVSGFSLSNARMGVSWIRQPPGKALEWLAHIFSNDEKSYSTSLKSRLTISKDTSKSQVVLTMTNMDPVDTATYYCARIPGYGGNFYYHYYGMDVWGQGTTVTVSSGGGGSGGGGSGGGGSDIQMTQSPSSLSASVGDRVTITCRASQGIRNDLAWYQQKPGKAPKRLIYAASTVQSGVPSRFSGSGSGTEFALTISSLQPEDFATYYCLQHNSFPWTFGQGTKVDIK

target: human FLT3 on transfected CHO cells (human) (UniProt P36888); assay: FACS, scFv on CHO-human FLT3 cells pre-incubated with FLT3 ligand (competitor)

Median [+ligand]/median [w/o ligand]*100, > 75%:
B1
B2
B3
B4
B5
B6
B7
B8
B9
B10
B11
B12
B13
B14
B15
B16
B17
B18
B19
B20
B21
B22
